Assay results from the supplement of paper PMC6755084.

B1: minF1; the commonest letter at each place (parent)
chain: GAGACCGCAACTGAAAAGTTGTTATCAGAAATGGATGGGTTGAATTTCTGCACGTAGAAGCAAAAGGC

Variants of: B1
Assay: fraction ligated after 30 min (ligated reads / total reads); higher = more ligase activity
Details: with F1*subA RNA substrate (template-directed ligation), 42 °C
Procedure, shortened: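 Templates from an oligo pool encoding minimized ligase ribozyme variants were amplified by PCR, transcribed with T7, and purified on gels. Gel electrophoresis separated ligated from unligated RNAs, which were then reverse transcribed using barcoded primers and sequenced on a MiSeq, keeping core bases with quality ≥30. For each variant, fraction ligated equals ligated reads divided by total reads.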

Compared with G42A A44C, G28A A29C is higher in fraction ligated: 0.024 for the first, 0.83 for the second.

Going from A35T G37T to A35T G37C, the fraction ligated rises from 0.00238 to 0.00461.

Going from T25G A44T to C26T A35C, the fraction ligated falls from 0.00667 to 0.00406.

Compared with C26T A35T, C26A G28A is higher in fraction ligated: 0.0022 for the first, 0.0578 for the second.

First: T23C T25A
Second: T23C T25G
The fraction ligated of the first is higher: 0.0129 for the first, 0.0076 for the second.

Going from A27C G33C to A30G A35T, the fraction ligated falls from 0.817 to 0.0595.

Compared with A30G A35C, T25A G42C is lower in fraction ligated: 0.0448 for the first, 0.00199 for the second.

Compared with T25A G42T, A27T A29C is higher in fraction ligated: 0.00246 for the first, 0.808 for the second.

First: G33T G37T
Second: G33T G37A
The fraction ligated of the first is higher: 0.00922 for the first, 0.00704 for the second.

Going from T25A G33C to A29T G34T, the fraction ligated rises from 0.00366 to 0.00673.

Going from A29T G34C to A30G A44C, the fraction ligated rises from 0.00521 to 0.735.

First: T32C T36A
Second: A30C A43T
The fraction ligated of the first is lower: 0.00145 for the first, 0.0731 for the second.

Compared with T23A A43C, T25A C26A is lower in fraction ligated: 0.00617 for the first, 0.00271 for the second.

Compared with A24T A29C, G28C A29G is higher in fraction ligated: 0.0116 for the first, 0.812 for the second.

First: A27C
Second: A27T
The fraction ligated of the first is lower: 0.694 for the first, 0.824 for the second.

Going from A27G to T23A A35T, the fraction ligated falls from 0.803 to 0.0125.

First: G42A A43C A44T
Second: A27G A35C
The fraction ligated of the first is lower: 0.00211 for the first, 0.0489 for the second.

Compared with T32C A35T, C26G G37C is higher in fraction ligated: 0.0031 for the first, 0.00497 for the second.

Going from C26G G37T to T36C A43C, the fraction ligated rises from 0.00384 to 0.00423.

First: A35T G42A
Second: A27T G34A
The fraction ligated of the first is lower: 0.00343 for the first, 0.285 for the second.

First: A27T G34C
Second: A27T G34T
The fraction ligated of the first is higher: 0.00507 for the first, 0.00294 for the second.

First: G37A G42C
Second: G37A G42T
The fraction ligated of the first is higher: 0.00225 for the first, 0.00089 for the second.

Compared with C26T G33C, A30T A43G is lower in fraction ligated: 0.325 for the first, 0.0459 for the second.

First: T32G G42A
Second: G33C G34A
The fraction ligated of the first is lower: 0.00352 for the first, 0.18 for the second.

Compared with G33C G34C, G34A G42T is higher in fraction ligated: 0.00483 for the first, 0.00582 for the second.

First: A30C A35C
Second: A30C A35T
The fraction ligated of the first is lower: 0.00575 for the first, 0.01 for the second.

Compared with A27T G33T, C26A A30T is lower in fraction ligated: 0.737 for the first, 0.0695 for the second.

Compared with C26A G42A, C26A G42C is lower in fraction ligated: 0.00533 for the first, 0.00168 for the second.

Compared with A30G T36G, C26T A27T is higher in fraction ligated: 0.0634 for the first, 0.816 for the second.

First: A29C A31G
Second: A31T A44T
The fraction ligated of the first is lower: 0.808 for the first, 0.814 for the second.

First: A31C A44C
Second: A31C A44T
The fraction ligated of the first is lower: 0.655 for the first, 0.794 for the second.

Compared with G42C A43C A44G, G42C A43C A44C is lower in fraction ligated: 0.00342 for the first, 0.00224 for the second.

Compared with C26G G34C, A31T G42A is higher in fraction ligated: 0.0293 for the first, 0.495 for the second.

Going from C26T G34T to A35T A44G, the fraction ligated falls from 0.0063 to 0.0054.

Going from T23A A44T to A29G A30T, the fraction ligated rises from 0.0479 to 0.817.

First: A27G A29C
Second: T25C G34T
The fraction ligated of the first is higher: 0.809 for the first, 0.00336 for the second.

First: G34C A44G
Second: G34C A44T
The fraction ligated of the first is lower: 0.00318 for the first, 0.00566 for the second.

First: A31C T32G
Second: A31G G33A
The fraction ligated of the first is lower: 0.0132 for the first, 0.811 for the second.

Going from T25A G28C to G28T T32A, the fraction ligated rises from 0.00741 to 0.0381.

First: A27G A43G
Second: A27G A43C
The fraction ligated of the first is lower: 0.105 for the first, 0.132 for the second.

Compared with A27T G28T, A27T G28A is lower in fraction ligated: 0.833 for the first, 0.825 for the second.

First: T36G G42T
Second: T25C A29T
The fraction ligated of the first is lower: 0.000662 for the first, 0.0467 for the second.

Compared with G34A A43C, T23C A29G is higher in fraction ligated: 0.00464 for the first, 0.277 for the second.

Going from A29C A43T to T25A G37A, the fraction ligated falls from 0.0813 to 0.00183.

Compared with A29G A44G, A29G A44T is higher in fraction ligated: 0.753 for the first, 0.76 for the second.

Going from T23A G37C to G28A A30C, the fraction ligated rises from 0.00499 to 0.802.

Compared with G28A A30G, T25C A27T is lower in fraction ligated: 0.816 for the first, 0.407 for the second.

Going from A29T T36A to A27G T32A, the fraction ligated rises from 0.0343 to 0.0468.

Going from A30T G34A to G28A G42C, the fraction ligated falls from 0.0989 to 0.0107.

Compared with A31T, G34C A35G is lower in fraction ligated: 0.815 for the first, 0.00539 for the second.

First: G34C A35T
Second: A30G G33T
The fraction ligated of the first is lower: 0.00667 for the first, 0.672 for the second.

Compared with A30T A44T, A31G G37A is lower in fraction ligated: 0.693 for the first, 0.00669 for the second.

First: A31G G37T
Second: A31C T36C
The fraction ligated of the first is lower: 0.0111 for the first, 0.0114 for the second.

First: T25A G34A
Second: T25A G34C
The fraction ligated of the first is higher: 0.00806 for the first, 0.0033 for the second.

Going from A30T T36C to A24T T36A, the fraction ligated falls from 0.0213 to 0.0205.

First: A31C G42T
Second: A27C A43C
The fraction ligated of the first is higher: 0.0885 for the first, 0.0394 for the second.

Going from T25C A35C to T32A A43C, the fraction ligated rises from 0.00531 to 0.0118.

Going from A24C A43T to A31G A43C, the fraction ligated rises from 0.0035 to 0.142.

Going from G33C G37C to A43T A44C, the fraction ligated falls from 0.00381 to 0.00191.

Compared with A43T A44T, A27C A35T is higher in fraction ligated: 0.00531 for the first, 0.176 for the second.

Going from G28C T32G to T23C G28C, the fraction ligated rises from 0.0241 to 0.224.

First: G28C G42T
Second: G28C G42A
The fraction ligated of the first is lower: 0.0849 for the first, 0.264 for the second.

Going from T23A A31T to A30C A31G, the fraction ligated rises from 0.325 to 0.806.

Compared with A30C A31C, A31G T32G is lower in fraction ligated: 0.714 for the first, 0.0239 for the second.

Compared with A31G T32C, T25C G33T is higher in fraction ligated: 0.00833 for the first, 0.0306 for the second.

First: A24G T32C
Second: A24G A30G
The fraction ligated of the first is lower: 0.00122 for the first, 0.185 for the second.

First: T32G A44C
Second: G28T A44G
The fraction ligated of the first is lower: 0.067 for the first, 0.759 for the second.

Going from T23A G42A to G42A A43G A44T, the fraction ligated falls from 0.0065 to 0.00363.

Compared with T36A G42C, T36A G42T is lower in fraction ligated: 0.0064 for the first, 0.00416 for the second.

Compared with T36A G42A, A35G T36A is higher in fraction ligated: 0.00342 for the first, 0.00856 for the second.

Compared with T32C A44C, T32C A44G is higher in fraction ligated: 0.0116 for the first, 0.0172 for the second.

Compared with A30G G37T, T32A A44G is higher in fraction ligated: 0.0167 for the first, 0.0595 for the second.

Compared with T32G A43G, G37A A43C is lower in fraction ligated: 0.196 for the first, 0.00236 for the second.

First: A24T G28T
Second: T23G A24T
The fraction ligated of the first is lower: 0.0703 for the first, 0.104 for the second.

Compared with T23G A24C, A24C T36A is lower in fraction ligated: 0.0996 for the first, 0.0726 for the second.

Going from A27G A30C to G42T A43C A44G, the fraction ligated falls from 0.803 to 0.00164.

First: G42T A43C A44T
Second: A24G A44C
The fraction ligated of the first is lower: 0.0038 for the first, 0.00892 for the second.

Going from C26T A43G to C26G A31T, the fraction ligated rises from 0.0095 to 0.0387.

First: C26G A31G
Second: G28A G34A
The fraction ligated of the first is lower: 0.0731 for the first, 0.0882 for the second.

Compared with C26G A35C, C26G is higher in fraction ligated: 0.00486 for the first, 0.0466 for the second.

First: T32G G34T
Second: A29G G33T
The fraction ligated of the first is lower: 0.00509 for the first, 0.516 for the second.

Compared with A27G G37A, A31T G34C is lower in fraction ligated: 0.00716 for the first, 0.00659 for the second.

Compared with T23C T32A, A35G A44C is higher in fraction ligated: 0.00196 for the first, 0.0421 for the second.

In the case of A24G A27G, the fraction ligated is reported as 0.0437.
